Data: the supplement of paper PMC7877785
± gives the uncertainty stated by the source.

Assay: self-splicing fitness, log relative to wild type (ln ratio); higher = more splicing; Tetrahymena group I intron in knt gene, E. coli kanamycin selection, DiMSum; sequences stand for … in CUCUCU…GGAGGGAAAAGUUAUCAGGCAUGCACCUGGUAGCUAGUCUUUAAACCAAUAGAUUGCAUCGGUUUAAAAGGCAAGACCGUCAAAUUGCGGGAAAGGGGUCAACAGCCGUUCAGUACCAAGUCUCAGGGGAAACUUUGAGAUGGCCUUGCAAAGGGUAUGGUAAUAAGCUGACGGACAUGGUCCUAACCACGCAGCCAAGUCCUAAGUCAACAGAUCUUCUGUUGAUAUGGAUGCAGUUCACAGACUAAAUGUCGGUCGGGGAAGAUGUAUUCUUCUCAUAAGAUAUAGUCGGACCUCUCCUUAAUGGGAGCUAGCGGAUGAAGUGAUGCAACACUGGAGCCGCUGGGAACUAAUUUGUAUGCGAAAGUAUAUUGAUUAGUUUUGGAGUACUCGUGGUCG
Method in brief: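 The eight P1ex-region nucleotides of an intron in the knt kanamycin-resistance gene on pET-22b(+) were all randomised and the library put into E. coli BL21(DE3). Six replicate transformations were grown overnight at 37°C or 30°C on LB agar with or without 25 μg/mL kanamycin, together with 100 μg/mL carbenicillin, 50 μM IPTG and 0.2% rhamnose. Colonies were pooled and amplicon-sequenced on an Illumina HiSeq 2500. Fitness from DiMSum is the error-weighted combination of wild-type-normalised replicate fold changes, kanamycin over none.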

Sequence | self-splicing fitness (ln) (30 °C) | self-splicing fitness (ln) (37 °C)
AAAUAGCAAUAUUACGUACA | -1.23 ± 0.071 | -0.523 ± 0.092
AAAUAGCAAUAUUACGUGUC | -3.4 ± 0.19 | -3.29 ± 0.25
AAAUAGCAAUAUUACGUUGA | -3.3 ± 0.41 | -0.771 ± 0.16
AAAUAGCAAUAUUACGUUUA | -1.85 ± 0.15 | -1.03 ± 0.13
AACAAGCAAUAUUACGAACC | -1.27 ± 0.12 | 0.0146 ± 0.19
AACAAGCAAUAUUACGAAGG | -2.77 ± 0.19 | -1.95 ± 0.24
AACAAGCAAUAUUACGAGAG | -3.79 ± 0.22 | -2.24 ± 0.14
AACAAGCAAUAUUACGAGGG | -3 ± 0.11 | -1.35 ± 0.15
AACAAGCAAUAUUACGAUCU | -0.25 ± 0.062 | -0.072 ± 0.08
AACAAGCAAUAUUACGCACG | -1.31 ± 0.18 | -0.33 ± 0.18
AACAAGCAAUAUUACGCAGG | -2.67 ± 0.11 | -1.49 ± 0.098
AACAAGCAAUAUUACGCCAA | -2.32 ± 0.14 | -2.55 ± 0.16
AACAAGCAAUAUUACGCCAG | -2.62 ± 0.15 | -1.24 ± 0.15
AACAAGCAAUAUUACGCCCA | -0.0653 ± 0.094 | -0.00342 ± 0.11
AACAAGCAAUAUUACGCCUG | -0.373 ± 0.094 | -0.0232 ± 0.095
AACAAGCAAUAUUACGCCUU | -0.742 ± 0.11 | -0.314 ± 0.12
AACAAGCAAUAUUACGGACG | -1.3 ± 0.061 | -0.887 ± 0.086
AACAAGCAAUAUUACGGAUC | -1.6 ± 0.093 | -0.302 ± 0.11
AACAAGCAAUAUUACGGCGG | -0.998 ± 0.078 | -0.826 ± 0.1
AACAAGCAAUAUUACGGGCU | -1.82 ± 0.073 | -1.15 ± 0.099
AACAAGCAAUAUUACGGUCA | -0.52 ± 0.043 | 0.199 ± 0.062
AACAAGCAAUAUUACGGUGU | -2.51 ± 0.056 | -1.45 ± 0.068
AACAAGCAAUAUUACGGUUG | -2.83 ± 0.1 | -1.64 ± 0.084
AACAAGCAAUAUUACGUAUG | -3.33 ± 0.12 | -1.85 ± 0.1

Sequence | self-splicing fitness (ln) (30 °C) | self-splicing fitness (ln) (37 °C)
AACAAGCAAUAUUACGUCGG | -2.99 ± 0.14 | -1.99 ± 0.15
AACAAGCAAUAUUACGUGUA | -1.55 ± 0.046 | -1.01 ± 0.054
AACAAGCAAUAUUACGUUGG | -3.76 ± 0.13 | -3.31 ± 0.18
AACAAGCAAUAUUACGUUUG | -2.87 ± 0.096 | -2.46 ± 0.12
AACCAGCAAUAUUACGAAUU | -0.517 ± 0.064 | -0.314 ± 0.081
AACCAGCAAUAUUACGACAA | -1.14 ± 0.12 | -0.155 ± 0.12
AACCAGCAAUAUUACGACGG | -2.1 ± 0.089 | -0.974 ± 0.11
AACCAGCAAUAUUACGACUA | 0.0905 ± 0.084 | -0.0751 ± 0.079
AACCAGCAAUAUUACGAGAU | -1.96 ± 0.078 | -0.239 ± 0.083
AACCAGCAAUAUUACGAGGG | -3.27 ± 0.11 | -2.1 ± 0.11
AACCAGCAAUAUUACGAGUA | -1.07 ± 0.061 | -0.523 ± 0.075
AACCAGCAAUAUUACGAUAG | -2.87 ± 0.16 | -2.11 ± 0.15
AACCAGCAAUAUUACGCAUC | -1.98 ± 0.079 | -0.531 ± 0.085
AACCAGCAAUAUUACGCGGC | -3.79 ± 0.2 | -3.14 ± 0.23
AACCAGCAAUAUUACGGAAU | -2.06 ± 0.08 | -0.602 ± 0.091
AACCAGCAAUAUUACGGAGA | -1.62 ± 0.086 | -1.5 ± 0.084
AACCAGCAAUAUUACGGGCU | -2.19 ± 0.093 | -1.71 ± 0.1
AACCAGCAAUAUUACGGUUG | -2.21 ± 0.05 | -0.839 ± 0.06
AACCAGCAAUAUUACGUAAU | -1.45 ± 0.055 | -0.238 ± 0.069
AACCAGCAAUAUUACGUGAU | -1.66 ± 0.04 | -1.11 ± 0.05
AACCAGCAAUAUUACGUGGG | -3.94 ± 0.12 | -2.57 ± 0.094
AACCAGCAAUAUUACGUGUC | -3.29 ± 0.094 | -1.42 ± 0.075
AACCAGCAAUAUUACGUGUG | -1.05 ± 0.033 | -0.463 ± 0.048
AACCAGCAAUAUUACGUUCA | -0.752 ± 0.06 | -0.495 ± 0.065

Sequence | self-splicing fitness (ln) (30 °C) | self-splicing fitness (ln) (37 °C)
AACCAGCAAUAUUACGUUCU | -1.15 ± 0.043 | -0.678 ± 0.053
AACCAGCAAUAUUACGUUGU | -2.68 ± 0.077 | -2.38 ± 0.1
AACGAGCAAUAUUACGAACA | -3.15 ± 0.28 | -1.9 ± 0.16
AACGAGCAAUAUUACGAAGA | -3.13 ± 0.33 | -1.82 ± 0.44
AACGAGCAAUAUUACGACUG | -2.12 ± 0.16 | -0.348 ± 0.15
AACGAGCAAUAUUACGAGCU | -4.74 ± 0.36 | -3.22 ± 0.27
AACGAGCAAUAUUACGAUAA | -3.76 ± 0.2 | -2.94 ± 0.21
AACGAGCAAUAUUACGAUCA | -2.1 ± 0.21 | -1.41 ± 0.21
AACGAGCAAUAUUACGAUGC | -2.93 ± 0.2 | -1.52 ± 0.26
AACGAGCAAUAUUACGAUUU | -0.71 ± 0.067 | -0.294 ± 0.082
AACGAGCAAUAUUACGCAAA |  | -1.9 ± 0.35
AACGAGCAAUAUUACGCGCU | -3.43 ± 0.2 | -0.902 ± 0.14
AACGAGCAAUAUUACGCGGA | -2.97 ± 0.2 | -2.01 ± 0.2
AACGAGCAAUAUUACGCGGC | -2.71 ± 0.33 | -2.15 ± 0.33
AACGAGCAAUAUUACGCGGU | -3.29 ± 0.26 | -1.62 ± 0.15
AACGAGCAAUAUUACGCUCU | -5.11 ± 0.41 | -1.81 ± 0.14
AACGAGCAAUAUUACGCUGA | -1.64 ± 0.27 | -2.29 ± 0.39
AACGAGCAAUAUUACGCUUG | -2.67 ± 0.17 | -2.99 ± 0.29
AACGAGCAAUAUUACGGCGG | -2.67 ± 0.14 | -1.13 ± 0.13
AACGAGCAAUAUUACGGCUU | -0.938 ± 0.076 | -0.225 ± 0.1
AACGAGCAAUAUUACGGGAC | -3.37 ± 0.22 | -3.61 ± 0.46
AACGAGCAAUAUUACGGGGU | -3.26 ± 0.35 | 
AACGAGCAAUAUUACGGUAA | -4.2 ± 0.42 | -2.47 ± 0.28
AACGAGCAAUAUUACGGUAG | -3.73 ± 0.15 | -3.17 ± 0.18

Sequence | self-splicing fitness (ln) (30 °C) | self-splicing fitness (ln) (37 °C)
AACGAGCAAUAUUACGGUGU | -3.36 ± 0.17 | -1.81 ± 0.18
AACGAGCAAUAUUACGUAAG | -4.14 ± 0.3 | -0.595 ± 0.14
AACGAGCAAUAUUACGUAGA | -2.99 ± 0.12 | -2.43 ± 0.17
AACGAGCAAUAUUACGUCUC | -3.67 ± 0.29 | -3.03 ± 0.27
AACGAGCAAUAUUACGUGUA | -2.55 ± 0.11 | -3.2 ± 0.14
AACGAGCAAUAUUACGUUAG | -3.71 ± 0.33 | -3.11 ± 0.3
AACGAGCAAUAUUACGUUUU | -3.9 ± 0.14 | -2.79 ± 0.14
AACUAGCAAUAUUACGAAUU | -1.49 ± 0.076 | -0.396 ± 0.097
AACUAGCAAUAUUACGACCA | -0.23 ± 0.079 | 0.118 ± 0.1
AACUAGCAAUAUUACGACCG | -0.914 ± 0.12 | 0.134 ± 0.15
AACUAGCAAUAUUACGACGG | -2.21 ± 0.14 | -0.86 ± 0.21
AACUAGCAAUAUUACGACUU | -0.0929 ± 0.069 | 0.236 ± 0.09
AACUAGCAAUAUUACGAUAG | -3.19 ± 0.19 | -1.77 ± 0.13
AACUAGCAAUAUUACGCACC | 0.625 ± 0.17 | -1.48 ± 0.25
AACUAGCAAUAUUACGCAUG | -1.25 ± 0.083 | -0.11 ± 0.086
AACUAGCAAUAUUACGCCCG | -1.11 ± 0.18 | -0.346 ± 0.23
AACUAGCAAUAUUACGCCGU | -1.62 ± 0.11 | -0.221 ± 0.14
AACUAGCAAUAUUACGCCUA | -0.593 ± 0.11 | -0.206 ± 0.11
AACUAGCAAUAUUACGCGCC | -1.34 ± 0.12 | -0.314 ± 0.12
AACUAGCAAUAUUACGCGGC | -3.01 ± 0.19 | -3.27 ± 0.22
AACUAGCAAUAUUACGCUGG | -3.28 ± 0.4 | -2.34 ± 0.22
AACUAGCAAUAUUACGCUUC | -3.74 ± 0.33 | -1.68 ± 0.2
AACUAGCAAUAUUACGGAUC | -1.78 ± 0.17 | -1.37 ± 0.12
